Results taken from the DeepSol protein solubility set.

Assay: soluble on expression in E. coli; label from the status in PepcDB or PDB records

Sequence | soluble on expression in E. coli
MRNFKKSDKLNNVSYDVRGPVLEEAERMQEEGIRILKLNTGNPAPFGFDAPNEIVRDMIVNVRDSEGYSDSKGIFSARKAIEQYCQLKKFPNVTINDIYTGNGVSELITMCMQGLLNNGDEVLVPMPDYPLWTASVSLAGGTPVHYICDEQAEWYPDIDDIKSKITSNTKAIVIINPNNPTGALYPKELLLEIVEVARQNDLIIYSDEIYDRLVMDGLVHVPIATLAPDLFVVTLNGLSKSHRVAGFRCGWMVLSGDKSRVKGYIEGLNMLASMRLCSNVLSQQIIQTALGGYQSVDGLLLPGGRIYEQREFIYNAINDIPGLSAVKPKAAFYIFPKIDTAKFDIYDDEKFVLDFLHKHHILLVHGGGFNWQQPDHFRIVYLPKMEDLKTTADKMREFLSTYKQK | not soluble
MGSDKIHHHHHHMSDVLAYSVPAPAVVFPPMSPAPRVVPIAVQAPRKDALGCTACSMRSICMPQGLTPTELQRIEALICPSRTIKQGETIYRANDSFQSIYVVRVGSFKTVVMHRDGREQVTGFHLAGDSLGLDGVCSGHHSCDAIALEDSKMCIIPFHLLETMCREVKAVQQHVHRMMGGEIVRESSQMMLLGTMSAEQRVAT | not soluble
MGSDKIHHHHHHMKILVYGINYSPELTGIGKYTGEMVEWLAAQGHEVRVITAPPYYPQWQVGENYSAWRYKREEGAATVWRCPLYVPKQPSTLKRLLHLGSFAVSSFFPLMAQRRWKPDRIIGVVPTLFCAPGMRLLAKLSGARTVLHIQDYEVDAMLGLGLAGKGKGGKVAQLATAFERSGLHNVDNVSTISRSMMNKAIEKGVAAENVIFFPNWSEIARFQHVADADVDALRNQLDLPDNKKIILYSGNIGEKQGLENVIEAADRLRDEPLIFAIVGQGGGKARLEKMAQQRGLRNMQFFPLQSYDALPALLKMGDCHLVVQKRGAADAVLPSKLTNILAVGGNAVITAEAYTELGQLCETFPGIAVCVEPESVEALVAGIRQALLLPKHNTVAREYAERTLDKENVLRQFINDIRG | not soluble
MALEKEEEASQNGAFCVLDGLYCEEETGFVEDDLDDDGDLDFLEKSDESVVKFQFLPLLDMFLWDDDEILSLISKENETNPCFGEQILDGFLVSCRKEALDWVLRVKSHYGFTSLTAILAVNYFDRFMTSIKLQTDKPWMSQLVAVASLSLAAKVEEIQVPLLLDLQVEEARYLFEAKTIQRMELLILSTLQWRMHPVTPISFFDHIIRRFGSKWHQQLDFCRKCERLLISVIADTRFMRYFPSVLATAIMILVFEELKPCDEVEYQSQITTLLKVNQEKVNECYELLLEHNPSKKRMMNLVDQDSPSGVLDFDDSSNSSWNVSTTASVSSSSSSPEPLLKRRRVQEQQMRLPSINRMFLDVLSSPR | soluble
VGLIEKQKVQDSDFIEHKEVGLLISHDGIYFKFEPEQLAKHLVEFKSEQDQLIFGGVVQNSDYFFMVTSLGNIITVPIYKTLSNTKTKMNELLAKKPILMEDEKLVLAGIVNPDKME | soluble
MTKSELMVRLAEVFAAKNGTHLLAKDVEYSVKVLVDTMTRSLARGQRIEIRGFGSFDLNHRPARIGRNPKTGERVEVPEKHVPHFKPGKELRERVDLALKENAN | not soluble
NPSTTKAPLADYLAHLPLAEEERERLGESASFSELHARLAGAEGAAADAGGDPALASVRARLQLGTPELDDAEMFGVDAQGRTFLKISPPIRRTKVIPEPWRTNILVRGWRRLTGRSNPPKPKRALPRARWQ | not soluble
MSFYSAHQLALALEGLQRALDEIGIYSDILEDALLIACNVPVAEKTSILNDFQRADTINYGGLAAAIRANLAPDVCERRITEFQKKYAHGTDDQRLELLSDESVWRLEAYEAFADAEPLSTLEKIRLGVIGGPIDSIDPNWPLRKIAPERFLNDRWSRAVHDPRRIRRKIIGHRLPYRTKAEPDVPYGIPKRARLAARENSGPVRAPPLLGGAHPGQFRARGPAGVGVVSRHTRQFGAARGVLRGPTGNRVVPLFPVQIRARPPAPSQTIIRVQETERVKLEPTDNSYEEQKPPLLEN | not soluble
MKQDMWELRKIQSQGITDNAQYPAGTYIVFTAAAPYIPLFEQHGKDDIALSLVRHEEAWWIVNHSDELCCAVNEQVMEPHHRMRLNDGDTIEWGLSSWCLARTNDESRPDVSFPQLVQSSESVAEYLDLDWFKQQQLNPQNPFDIIPVRETASSYTGHEADSTLHQLYQEYQQALRPSGQEKPLRAKPFPRNEDAVTQDLTSLYDKKGDTDTLQDMVAGAPGIDAILDTLDTTGEGEMHWLAMESMPDILQLLSPELGGKTAHSEILPDLTRREHRIIGIDSHYRITPTQKNGNTAHEKN | not soluble
MRKPIEHTADIAYEISGNSYEELLEEARNILLEEEGIVLDTEEKEKMYPLEETEDAFFDTVNDWILEISKGWAPWRIKREGNELKVTFRKIRKKEGTEIKALTYHLLKFERDGDVLKTKVVFDT | not soluble
TDPDFLIRLATNLKEEKSKRLEAEQKIEAQRPKVLFADAVSDTEGTILIRDLAKLIQQNGVDIGEKRLFEWLRQNGYLISRRGTDYNRPTQKSMELGLFKIKETAIMRSSGAHTAITAKVTGKGQLYFVNKFLEQSLV | not soluble
FDKTVLQIFANYCVAAAESMAHTLMRTAHSAFVKETEDFSCTIMTPRGQTFASPKTLGATWYPGLDFSGAIDMIDGYEPGDICMTNDAYSGYVATHTPDIMMWKPVYYQGEMVCFVGGHIHNTDMGGAVPASLSRTLTEVHQEGIRFPPTKIVRRGVLNEELMRLMELNVRSPDQNRGDLQAQTAMLMTGERRIVEIIERFGLQAFKEGMAAMLDYSEQQARAIVRAMPDGEYFFAEYANEDSLNGKPLRVAITLRIRGDELEFDFTGSDPQLTSSLNMPTGGKERHVLALVGLNYVLYSLNPEILLNAGMLRVARCILPEGSVVNPLAPAAVGMRSLTCKVVQYATMGVFSQVVPDRLPASPAGGMSIVNVKTTDRDGKTIIAAIEPVGGGAGGDPYSDGADASGAIVAFLRNTPVEINETEVPIRITRYGMVPDSGGPGRYRGGLGTCMEFQVYTPNSAVTARNRDRSRFASWGVLGGKAGTVSRFLRNPGTAHEEDLGVHDFIHCQPGDVIRLEGCGGGGYGSPWERDPARVLHDVRCGYV | not soluble
MRKMMQNHQNTRFYFSASLILFNDKEMGKRSNYHHLVAFGGFFKALPDDGDLLTRFVTVEKLKKLPHCKFPFFPVKKPSLSPKMQPSYDADDFMRRGFFGSFIGFRKRSSSKPGELYAKNVTYSQIFSRHLID | soluble
MSLIERVRTDLYRIPLPTRLTDSTHGAMMDFELITVRIEDSDGATGLGYTYTVNHGGAAVATMVDKDLRGCLLGADAEQIEKIWQSMWWRLHYAGRGGHATSAISAVDIALWDLKGIRARTPLWKLFGGYDPVVPVYAGGIDLELPVADLKTQADRFLAGGFRAIKMKVGRPDLKEDVDRVSALREHLGDSFPLMVDANMKWTVDGAIRAARALAPFDLHWIEEPTIPDDLVGNARIVRESGHTIAGGENLHTLYDFHNAVRAGSLTLPEPDVSNIGGYTTFRKVAALAEANNMLLTSHGVHDLTVHALASVPHRTYMEAHGFGLHAYMAEPMAVTDGCVSAPDRPGHGVVLDFERLGRLAVGEGHHHHHH | soluble
MSLKALVLTGTKQFEMQDVTTPTVKDDEVLVNTAYAGICGTDRALYAGLPGSADAVPPIVLGHENSGIVAAIGRNVTNVKVGDRVTVDPNIYCGECEYCRTDRPELCDNLSAVGVTRDGGLEESFTAPASVVYPIPDSVSLKAAATVEPISCAVHGVKLLDLTPYQKALVIGDGFMGQLFVQLLQAYGVHQVDFAGIVDEKLAFNKEKFGVTNTYNTTRDSIPADYDVVIEAVGLPQTQEQAVEATKKGAQVLMFGVGKPNQTFSMNTYEVYQKQLKIQGAFINPYAFEDSIALLASGQLDVESLISHEVSLEQVEDVLNGKVEHVSKAVVKVSEGHHHHHH | soluble
VTPQYQATSTIYVLGNSVSMSGVDLTLSKQLTADFSVLAKSRPVMNKIEEKLKADYKYKDLNYSVEQLQGMITIENPSGTSLMRMTATNSDAQLAADIANAAADAVAERISEVMVIDKPSSVEEAEKPNYPVSPNVKKNM | not soluble
MEIKDTYNIGELSPGMTATFEGEVISALPIKEFKRADGSIGKLKSFIVRDETGSIRVTLWDNLTDIDVGRGDYVRVRGYIREGYYGGLECTANYVEILKKGEKIESLEHHHHHH | not soluble
MSTTHNVPQGDLVLRTLAMPADTNANGDIFGGWLMSQMDIGGAILAKEIAHGRVVTVRVEGMTFLRPVAVGDVVCCYARCVQKGTTSVSINIEVWVKKVASEPIGQRYKATEALFKYVAVDPEGKPRALPVE | soluble
MGSDKIHHHHHHMAFTNNVMIVRHKLLAKLVNLWKENKLTNEIDRLPIELSPRRSRPLGRCCIHKERAVYKYKLFPLLGFDMTDETDELTSLSEYARQALERKNKQKENILCVIDEACSSCVQVNYEVTNLCRGCVARSCYMNCPKDAIRFRKNGQAKIDHDACISCGKCHQSCPYHAIVFIPVPCEEACPVKAISKDENGIEHIDESKCIYCGKCLNACPFGAIFEISQAFDVLEGIRSGEKMIAIPAPSILGQFNTSIEAVYGALRQMGFADVVEVAQGAMDTVSHEAAELKEKLEEGQPFMTTSCCPSYIELVNKHIPGMKPYVSSTGSPMYYAARIAKERHPDAKIVFIGPCVAKRKEARRDECVDYILTFEEMASIFEGLDIQLEQTQPFSVLYTSVREAHGFAQAGGVMGAIKAYLGEEAKKFSAIQVSDLNKKNIGLLRAAAKTGKAQGQFIEVMACEGGCISGPSAHNDAIGGRRQLNQELIKRRESYEETHR | not soluble
MDWRHEAVCRDEDPELFFPVGNSGPALAQVAAAKVVCNRCPVTSQCLAWALETGQDAGVWGGMSEDERRALKRRKNRGRGRARATA | not soluble
MGHHHHHHSHGDAAPEALEFEYDLAEPPEKVWRALTVPELLAAWMMPNDIRPEIGNRFAFAGTEAAIECEILDAEPERLLRYSWRQQPGDAARQDPLDSVVTFTLARTVSGGTHLRIVHDGFGGKAMPAVAMASG | not soluble
MGSDKIHHHHHHMFDPTLLHIINAHSRNPHYHKKFPIILFWSQKSGCTSLAKWFFYQIDLLQTALNYSPFIHNYEYDIYKNAPAYSLRLGIALREKQKETFKLVRNPYKRAVSSFVSLIAPPYIENPEWKPIRKFLYQDENSSKGLSFKQFLYYLLINGAQANSINPHFTQQYIADEEKYVTNYIYLENFNQDMKALEKRFELKTAPINEFSTSWHHQTPSMIYKGNFSESDITDPLFPRLPTFESFYDTECIQLVQTIFQNDFNTYKYSKEYPY | not soluble
MADTSPRESKLNKQDQDLHLEIDETGLACKSEVKKRWLGARGTAGLYGNGKYYYEVTITSKGLCRVGWATLGGSLNIGKGLDSFGYGGTGMKSTHKKFDDYGLPFTLNDVIGCYLDLDSRTIWWSKNGEQFPAAFSIDVKYKNSNTCLFPAVLCQNSSLSVNFGSQPFKFPPGNQFTAVSDAPNENVNWWSYEEQNSFEHVVVKLPFAVEEDVHNEFRMHTKLMLTELKRTQCKQDKDGSIRRTLQPISKTICAFLNTDGGRLFLGVNDDKVIKGISMSKNMIYHFFGSLRHMCENFKPCSPLCRIKVSILEVIPVGVIKVKLRKADLLKEEAHDFPKLACHSVGGSFCDCFLEINKAPTKQYLLIIQVSPPNPNSRTTIFQNEEGLVYRRRMASNKCVYLDDLRRMMNEKNQVFVDLPDEARAEIDSFSKFD | not soluble
GMKPLKEVVGAYLALSDAQRQLVAGEYDEAAANCRRAMEISHTMPPEEAFDHAGFDAFCHAGLAEALAGLRSFDEALHSADKALHYFNRRGELNQDEGKLWISAVYSRALALDGLGRGAEAMPEFKKVVEMIEERKGETPGKERMMEVAIDRIAQLGAS | soluble
